Data on two molecules can be found in PMC7664366 (Redox Biology, 2020).

The target of the assay is His-tagged human Rac1 recombinant protein (human, UniProt P63000 1-192). The assay is described as follows: MALDI MS, linear mode acquisition.

Consider HRKKRRQRRRQFPGEYIPTVF [NipR2 (nitration inhibitory peptide for the Rho GTPases 2)], for which the binding result was “binds”.

HRKKRRQRRRQFPGEFIPTVF [NipR2F (phenylalanine-substituted control peptide)]: the binding result is “binds”.
